T1: human PVRIG-his (AcroBiosystems, Cat NO. PVG-H52H4) (human, UniProt Q6DKI7 41-171, limits assumed)
T1 construct: also called human PVRIG protein
T1 sequence (looked up): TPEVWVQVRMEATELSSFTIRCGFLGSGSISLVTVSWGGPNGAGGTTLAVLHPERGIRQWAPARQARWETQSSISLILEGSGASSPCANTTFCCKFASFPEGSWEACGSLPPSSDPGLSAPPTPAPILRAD

T2: human PVRIG-mFc protein (Acro, PVG-H5253) (human, UniProt Q6DKI7 41-171, limits assumed)
T2 construct: bought protein
T2 sequence (looked up): T1 sequence (looked up)

B1: PVRIG-A15 (Fc fusion)
chain: QVQLVESGGGLVQAGGSLRLSCVASGRTFSANTMAWFRQAPGKEREFVAYTRWTDDNTDYASYADFVKGRFTAFRDNTRNTMYLQMNRLRPEDTAVYYCAAATTRGTYYSAGDYNSWGQGTQVTVSS
notes: heavy chain antibody VHH-hinge-CH2-CH3, human IgG1 constant part; not shown: human IgG1 hinge-CH2-CH3
B2: PVRIG-A30 (Fc fusion)
chain: QVQLVESGGGLVQPGGSLRLSCAASGRTDSMNVMGWFRRAPGKEREFVARIKWNGDTTYTAYADFLKGRFTLYGAVARNRVYLQMNSLQPEDTAVYYCAAGEVSGSSYSPDYGMHYWGKGTLVTVSS
notes: as for B1
B3: PVRIG-A60 (Fc fusion)
chain: QVQLVESGGGLVQSGGSLRLSCAASGRTRSMYVMGWFRQAPGKEREFVGRIKWSGDTTYTSYADFVKGRFTLYGNQARNTVYLQMNSLKPEDAAVYYCNLRRLDGVNYWGKGTLVTVSS
notes: as for B1
B4: PVRIG-A75 (Fc fusion)
chain: QLQLVESGGGLVQSGGSLRLSCAASGRTRSMYVMGWFRQAPGKEREFVGRIKWSGDTTYTSYADFVKGRFTLYGNQARNTVYLQMNSLKPEDTAVYSCAASKFPVSGVPEHYDYWGQGTQVTVSS
notes: as for B1
B5: PVRIG-A35 (Fc fusion)
chain: EVQVVESGGGLVQSGGSLRLSCAASGRTRSMYVMGWFRQAPGKEREFVGRIKWSGDTTYTSYADFVKGRFTLYGNQARNTVYLQMNSLKPEDTAVYYCNGRSRFNVINAWGTGTLVTVAS
notes: as for B1
B6: PVRIG-A43 (Fc fusion)
chain: QVQLVESGGGLVQSGGSLRLSCAASGRTRSMYVMGWFRQAPGKEREFVGRIKWSGDTTYTSYADFVKGRFTLYGNQARNTVYLQMNSLKVEDTAVYYCAGRVVPLPSRQRDRYDYWGQGTQVTVSS
notes: as for B1
B7: PVRIG-A104 (Fc fusion)
chain: EVQVVESGGGLVQAGGSLRLSCAASGRTRSMYVMGWFRQAPGKEREFVGRIKWSGDTTYTSYADFVKGRFTLYGNQARNTVYLQMNSLKPEDTAVYYCYRRSWTNTKLYWGKGIQVTVSS
notes: as for B1
B8: PVRIG-A113 (Fc fusion)
chain: QLQLVESGGGLVQSGGSLRLSCAASGRTRSMYVMGWFRQAPGKEREFVGRIKWSGDTTYTSYADFVKGRFTLYGNQARNTVYLQMNSLKPEDTAVYYCAALPSDYDYRAASYGVDYWGKGTLVTVSS
notes: as for B1
B9: PVRIG-A117 (Fc fusion)
chain: EVQVVESGGGLVQAGGSLRLSCTASEHIYDLYIMGWYRQAPGKDRELVATITYTGSIYIADSVKDRFTISRGNAKNTVSLQMSGLKPEDTAVYYCNADPSGLGRKLYWGQGTQVTVSS
notes: as for B1

target: T1, human PVRIG-his (AcroBiosystems, Cat …); test: competition ELISA, PVRIG-His coated, competitor human PVRL2-mFc
Description: The ELISA plate was pre-coated with 100 μL/well of 0.5 μg/mL human PVRIG-his protein (AcroBiosystems, Cat NO. PVG-H52H4). The tested anti-PVRIG antibodies were diluted from the highest concentration of 16 nM (two-fold concentration). The diluted antibodies were mixed with 18 ng/ml human PVRL2-mFc (AcroBiosystems, Cat NO. CD2-H5257) in equal volume, added into the plate (100 μL/well), and incubated with shaking at room temperature for 2.0 hours. […] A HRP substrate, TMB (Thermo, Cat NO. 34029) was added into wells after washing the plate again for color development. After adding a termination solution to terminate the reaction, the absorbance value was read by a microplate reader (MD i3×). An inhibiting curve was drawn with concentration of antibodies as the abscissa and the corresponding OD value as the ordinate. The IC50 value was calculated by using a Four Parameter Logistic Fit (GraphPadPrism9). The smaller the IC50 value, the stronger the ability of the antibodies inhibits the binding between PVRIG and PVRL2. The positive and negative controls are the same as in Example 8.

Binder	IC50
B1	0.208 nM
B2	0.255 nM
B3	0.0557 nM
B4	0.0621 nM
B5	0.0543 nM
B6	0.0537 nM
B7	0.0659 nM
B8	0.092 nM
B9	0.0528 nM

target: T1, human PVRIG-his (AcroBiosystems, Cat …); test: SPR (BIAcore), antibody captured on Protein A chip, human PVRIG-His analyte
Description: Biacore was used to detect the specific binding between anti-PVRIG antibody and human PVRIG protein. Protein A chip was used in the BIAcore assay. The time required for the chip to capture the diluted antibody and saturate the binding antigen to reach Rₘₐₓ (Maximum binding capacity, 50 RU) was measured by manual run. […] The affinity of antibody for antigen was measured by multi-cycle kinetics. In each cycle, the antibodies were injected prior to the injection of gradient concentraions of PVRIG proteins allowing the occurrence of antibody-antigen association and dissociation After each cycle, the Protein A chip was regenerated by Glycine, pH 1.5 (to remove the proteins on the chip). The affinity of antibody for antigen was calculated by BIAcore T200 analysis software.

Binder	Kd	koff	kon
B1	0.377 nM	2.31e-05 s⁻¹	61200 M⁻¹ s⁻¹
B2	0.404 nM	6.36e-05 s⁻¹	157000 M⁻¹ s⁻¹
B3	0.283 nM	3.97e-05 s⁻¹	141000 M⁻¹ s⁻¹
B4	0.531 nM	5.67e-05 s⁻¹	107000 M⁻¹ s⁻¹
B5	0.846 nM	7.53e-06 s⁻¹	8900 M⁻¹ s⁻¹
B6	0.366 nM	8.58e-06 s⁻¹	23400 M⁻¹ s⁻¹
B7	0.0276 nM	4.24e-06 s⁻¹	154000 M⁻¹ s⁻¹
B8	0.203 nM	8.96e-05 s⁻¹	442000 M⁻¹ s⁻¹
B9	0.367 nM	0.00137 s⁻¹	3.74e+06 M⁻¹ s⁻¹

target: T2, human PVRIG-mFc protein (Acro, …); test: FACS competition, PVRIG-mFc binding to CHO-K1-CD112 cells, competitor CD112 on cells
Description: A working solution of human PVRIG-mFc protein (Acro, PVG-H5253) prepared with staining buffer, 1 μg/mL (four-fold concentration), was added into a 96-well plate (50 μL PVRIG-mFc working solution per well). […] The diluted antibodies were added to the well containing 50 μL of PVRIG-mFc. The plate was placed on a microplate shaker at 400 rpm for 1 minute to fully mix the antibodies and PVRIG-mFc proteins, and then incubated at 4° C. for 30 minutes. After the incubation, the cell suspension prepared above (100 μL) was added into the wells, gently mixed with the pipette tip and incubated at 4° C. for 30 minutes. After the incubation, the cells were washed twice with staining buffer (200 μL per well) and centrifuged at 350×g for 5 minutes to discard the supernatant. The PE goat anti-mouse IgG Fc antibody (Biolegend, 405337) was diluted 250 times with staining buffer, added into the washed wells (100 μL per well), mixed well, and stained at 4° C. for 30 minutes. After staining, the cells were washed twice with staining buffer, finally resuspended with 200 μL staining buffer and analyzed by flow cytometry (BD, Canto II). The weaker the fluorescence signal, the stronger the ability of the antibodies blocks the binding of CHO-K1 human CD112 cells to the PVRIG-mFc protein. An antibody binding curve was drawn with concentration of antibodies as the abscissa and the corresponding Mean Fluorescence Intensity (MFI) as the ordinate. The IC50 value of the antibodies and the AUC value of the binding curve were calculated by using a Four Parameter Logistic Fit (GraphPadPrism9). The smaller the IC50 value and AUC value, the stronger the ability of the antibodies competes with CHO-K1-CD112 cells to bind to human PVRIG-mFc protein. […] […] The smaller the percentage value, the stronger the blocking ability of the antibodies.

Binder	% AUC to COM701-hIgG4	% AUC to SRF813-hIgG1	% IC50 to COM701-hIgG4	% IC50 to SRF813-hIgG1
B1	77.2%	77.3%	54.1%	72.4%
B2	58.9%	58.9%	48.1%	64.4%
B3	117%	103%	98.9%	96.4%
B4	101%	86.6%	89.6%	93.7%
B5	145%	126%	138%	136%
B6	128%	111%	121%	119%
B7	152%	111%	118%	116%
B8	172%	106%	124%	97.9%
B9	130%	72.7%	134%	118%

Source: patent publication US20240343803A1 (SHANDONG SIMCERE BIOPHARMACEUTICAL, published 2024)
